# Results from US20230391845A1, “GLP-1, GIP AND GLUCAGON RECEPTOR TRIPLE AGONISTS” (priority 2020, published 2023).
# Where no end group is shown, it is not given here. [ ]: non-standard residue; d: D form. Aib = CC(C)(N)C(=O)O
# T1: human glucose-dependent insulinotropic polypeptide receptor (human, UniProt P48546 22-466)
# T1 sequence (looked up): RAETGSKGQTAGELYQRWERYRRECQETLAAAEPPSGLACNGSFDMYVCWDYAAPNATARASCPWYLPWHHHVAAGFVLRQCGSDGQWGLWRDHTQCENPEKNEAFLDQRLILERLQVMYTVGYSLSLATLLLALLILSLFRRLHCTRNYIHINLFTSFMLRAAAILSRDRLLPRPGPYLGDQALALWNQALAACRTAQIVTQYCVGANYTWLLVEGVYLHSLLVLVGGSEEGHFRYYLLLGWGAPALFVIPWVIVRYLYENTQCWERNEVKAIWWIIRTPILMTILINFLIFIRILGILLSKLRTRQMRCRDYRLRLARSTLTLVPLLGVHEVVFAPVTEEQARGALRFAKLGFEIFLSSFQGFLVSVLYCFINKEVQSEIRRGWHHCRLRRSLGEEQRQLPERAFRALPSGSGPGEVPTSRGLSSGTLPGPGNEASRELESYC
# B1: Compound No. 13 (peptide)
# peptide: Y[Aib]QGTFTSDYSIYLEKQAA[Aib]EFVNWLLAGGPSSGAPPPS-NH2
# modifications: not fully specified (residue 16); printed as Y-Aib-QGTFTSDYSIYLE-K[(2S)-2-amino-6-[[(2S)-2-amino-6-[[(4S)-4-carboxy-4-[[4-[(19-carboxynonadecanoylamino)methyl]cyclohexanecarbonyl]amino]butanoyl]amino]hexanoyl]amino]hexanoyl]-QAA-Aib-EFVNWLLAGGPSSGAPPPS-NH2
# B2: Compound No. 12 (peptide)
# peptide: Y[Aib]QGTFTSDYSIYLEKQAA[Aib]EFVNWLLAGGPSSGAPPPS-NH2
# modifications: not fully specified (residue 16); printed as Y-Aib-QGTFTSDYSIYLE-K[2-[2-[2-[[2-[2-[2-[[(4S)-4-carboxy-4-[[4-[(19-carboxynonadecanoylamino)methyl]cyclohexanecarbonyl]amino]butanoyl]amino]ethoxy]ethoxy]acetyl]amino]ethoxy]ethoxy]acetyl]-QAA-Aib-EFVNWLLAGGPSSGAPPPS-NH2
# B3: Compound No. 15 (peptide)
# peptide: Y[Aib]QGTFTSDYSIYLEKQAA[Aib]EFVNWLLAGGPSSGAPPPS-NH2
# modifications: not fully specified (residue 16); printed as Y-Aib-QGTFTSDYSIYLE-K[2-[2-[2-[[2-[2-[2-[[(4S)-4-carboxy-4-(19-carboxynonadecanoylamino)butanoyl]amino]ethoxy]ethoxy]acetyl]amino]ethoxy]ethoxy]acetyl]-QAA-Aib-EFVNWLLAGGPSSGAPPPS-NH2
# B4: Compound No. 16 (peptide)
# peptide: Y[Aib]QGTFTSDYSIYLEKQAA[Aib]EFVQWLLEGGPSSGAPPPS-NH2
# modifications: not fully specified (residue 16); printed as Y-Aib-QGTFTSDYSIYLE-K[2-[2-[2-[[2-[2-[2-[[(4S)-4-carboxy-4-(19-carboxynonadecanoylamino)butanoyl]amino]ethoxy]ethoxy]acetyl]amino]ethoxy]ethoxy]acetyl]-QAA-Aib-EFVQWLLEGGPSSGAPPPS-NH2
# B5: Compound No. 14 (peptide)
# peptide: Y[Aib]QGTFTSDYSIYLEKQAA[Aib]EFVQWLLEGGPSSGAPPPS-NH2
# modifications: not fully specified (residue 16); printed as Y-Aib-QGTFTSDYSIYLE-K[2-[2-[2-[[2-[2-[2-[[(4S)-4-carboxy-4-[[4-[(19-carboxynonadecanoylamino)methyl]cyclohexanecarbonyl]amino]butanoyl]amino]ethoxy]ethoxy]acetyl]amino]ethoxy]ethoxy]acetyl]-QAA-Aib-EFVQWLLEGGPSSGAPPPS-NH2
# How the values were obtained:
# Test in all cases: cell-based or functional assay
# [1] = molecular target: human glucagon-like peptide 1 receptor (human, UniProt P43220 24-463)
# [2] = molecular target: T1, human glucose-dependent insulinotropic …
# human glucagon receptor = human glucagon receptor (human, UniProt P47871 26-477)
# human glucagon receptor, sequence (P47871 26-477): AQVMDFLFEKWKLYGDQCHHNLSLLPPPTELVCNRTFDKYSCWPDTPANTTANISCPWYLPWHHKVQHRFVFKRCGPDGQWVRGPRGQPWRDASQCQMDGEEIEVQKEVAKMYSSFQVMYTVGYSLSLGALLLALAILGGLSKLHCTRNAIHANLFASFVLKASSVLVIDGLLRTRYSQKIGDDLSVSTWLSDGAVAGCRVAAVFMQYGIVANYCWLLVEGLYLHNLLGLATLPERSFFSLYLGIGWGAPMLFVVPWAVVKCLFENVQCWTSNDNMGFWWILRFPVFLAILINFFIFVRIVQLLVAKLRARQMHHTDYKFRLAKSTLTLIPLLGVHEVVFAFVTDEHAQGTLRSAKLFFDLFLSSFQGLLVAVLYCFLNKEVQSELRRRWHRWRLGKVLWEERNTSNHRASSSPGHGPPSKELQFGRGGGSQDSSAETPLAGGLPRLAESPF
Binder,hGLP-1R CRE Luc EC50 (pM) [1],hGIPR CRE Luc EC50 (pM) [2],hGcgR CRE Luc EC50 (pM) (human glucagon receptor)
B1,2.8 pM,2.1 pM,157 pM
B2,2.4 pM,1.8 pM,239 pM
Y[Aib]QGTFTSDYSIYLEKQAA[Aib]EFVQWLLEGGPSSGAPPPS-NH2 (not fully specified (residue 16)) [Compound No. 17],2.8 pM,7 pM,86.6 pM
B3,1.4 pM,4.8 pM,267 pM
B4,3.1 pM,11.4 pM,185 pM
B5,4.3 pM,4.2 pM,287 pM
